In publication PMC5035961:
Values joined by “and” are separate entries in the source; they are usually repeats but may differ in a detail not shown here. Identical values can stand only once.

Key:
[1] = target: Influenza B nucleoprotein (strain B/Memphis/13/03) (influenza B virus, strain B/Memphis/13/03); experiment: negative stain electron microscopy
[2] = target: Influenza B nucleoprotein (strain B/Memphis/13/03) (influenza B virus, strain B/Memphis/13/03); experiment: SEC-MALLS

For “Influenza B nucleoprotein (strain B/Memphis/13/03) (natural protein)”, the stoichiometry N [1] was 2 and 4 and 5 and the stoichiometry N [2] was 5 and 2 and 4.
